{"source": "paper doi:10.1101/2023.05.02.539095", "about": "(bioRxiv, 2023)", "proteins": {"B1": {"name": "MSMEG_0317-His (wild type, made in E. coli) (natural protein)", "chain": "MNRAVALRIAACGLLGLGAALLIAALLLTTYTKGKIAKIPLDIDTSLVSDGTATAFDPDSLVAERFKIDRDVPVALQQQMSVEAPSNADVVTFQVGTTLRRTDRQQDAGLLLALVDTVTMNRNTAEAVSSENNPGGAVQKPRAIEDEKPPTNIALPHEGLTYRFPFDTEKKTYPFFDPIAQKAFDANYDGEEDVNGLTTYRFVQNVGYDADGKLADPIKYSSLYEDDADASVTARAEVWGVPGEPDESITMDRFYAASRTFWVDPVSGTIVKSEEHGYQYYAREALKPEVTYVDFKVTTNEESVESQVAAASDERDRIALWTRILPITFTALGLVSLVGGAVLGSFALRTESTLIDPGLDTADHGFFDTQGIQVPGAEAKTEKLPAQRPTDLPPDRPI"}}, "biological_target": "the molecule itself", "test": "SEC-MALS", "data": [{"protein": "B1", "values": [{"measurement": "stoichiometry N", "value": 2}]}]}
